Target: T1, human POT1 (human, UniProt Q9NUX5 1-634)
T1 sequence: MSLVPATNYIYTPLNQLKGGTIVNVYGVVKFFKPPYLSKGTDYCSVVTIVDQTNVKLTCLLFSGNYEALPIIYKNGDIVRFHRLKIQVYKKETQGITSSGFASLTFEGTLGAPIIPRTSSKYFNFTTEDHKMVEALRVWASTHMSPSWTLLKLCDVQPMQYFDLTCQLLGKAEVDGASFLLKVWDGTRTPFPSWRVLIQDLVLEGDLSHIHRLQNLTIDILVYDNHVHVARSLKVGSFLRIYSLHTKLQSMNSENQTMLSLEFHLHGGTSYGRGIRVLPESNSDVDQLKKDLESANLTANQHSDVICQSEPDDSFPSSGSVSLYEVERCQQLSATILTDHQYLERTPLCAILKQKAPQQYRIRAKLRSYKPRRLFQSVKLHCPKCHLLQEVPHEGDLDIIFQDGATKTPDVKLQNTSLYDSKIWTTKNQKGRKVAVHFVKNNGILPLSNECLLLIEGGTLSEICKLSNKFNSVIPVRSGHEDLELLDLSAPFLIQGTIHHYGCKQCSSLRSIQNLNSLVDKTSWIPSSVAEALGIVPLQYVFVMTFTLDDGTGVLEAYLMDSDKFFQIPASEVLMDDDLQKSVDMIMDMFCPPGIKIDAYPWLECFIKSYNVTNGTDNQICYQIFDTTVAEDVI
Test: EMSA

TTTTTTTTTTTTTTTTTTTTTTTTTTTTTTTTTT (ssDNA) [dT34]
binding result: no binding
